This passage reports % of … [SEQ ID NO: 124] Reaction Velocity, Profile-1 @ = 100 µm (kinase profiler assay) and Profile-1 @ = 30 µm (kinase profiler assay) results from US20090149389A1.

Where no end group is shown, it is not given here. [ ]: non-standard residue; d: D form.

Experiment in all cases: cell-based or functional assay
The target of assay [1] is MAPKAP kinase II (MK2) (UniProt P49137).
Assay [2] has as its target PKC β 1 (h) (human (h)), P05771.
Assay [3] concerns the target PKG1α (h) (human (h)), Q13976.

PKC β 1 (h) (human (h)), P05771, sequence (P05771 whole entry): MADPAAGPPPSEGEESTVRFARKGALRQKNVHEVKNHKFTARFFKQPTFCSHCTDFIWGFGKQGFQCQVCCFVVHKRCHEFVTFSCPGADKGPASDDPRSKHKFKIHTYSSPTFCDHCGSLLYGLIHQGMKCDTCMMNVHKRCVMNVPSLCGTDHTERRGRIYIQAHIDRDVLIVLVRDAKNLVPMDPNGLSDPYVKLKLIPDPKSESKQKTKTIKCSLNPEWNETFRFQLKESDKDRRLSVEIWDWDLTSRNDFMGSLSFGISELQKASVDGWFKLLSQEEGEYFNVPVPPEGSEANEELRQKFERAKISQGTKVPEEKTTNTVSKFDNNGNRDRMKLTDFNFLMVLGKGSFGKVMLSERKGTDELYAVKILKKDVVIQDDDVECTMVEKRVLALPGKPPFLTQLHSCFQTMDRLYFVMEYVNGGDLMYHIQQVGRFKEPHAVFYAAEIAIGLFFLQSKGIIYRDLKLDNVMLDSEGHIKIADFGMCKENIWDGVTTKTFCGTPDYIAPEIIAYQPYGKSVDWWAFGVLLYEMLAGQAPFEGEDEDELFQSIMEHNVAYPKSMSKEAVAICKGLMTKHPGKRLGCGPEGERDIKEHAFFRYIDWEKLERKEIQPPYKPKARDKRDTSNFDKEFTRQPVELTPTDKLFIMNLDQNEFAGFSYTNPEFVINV
MAPKAP kinase II (MK2), sequence (P49137 whole entry): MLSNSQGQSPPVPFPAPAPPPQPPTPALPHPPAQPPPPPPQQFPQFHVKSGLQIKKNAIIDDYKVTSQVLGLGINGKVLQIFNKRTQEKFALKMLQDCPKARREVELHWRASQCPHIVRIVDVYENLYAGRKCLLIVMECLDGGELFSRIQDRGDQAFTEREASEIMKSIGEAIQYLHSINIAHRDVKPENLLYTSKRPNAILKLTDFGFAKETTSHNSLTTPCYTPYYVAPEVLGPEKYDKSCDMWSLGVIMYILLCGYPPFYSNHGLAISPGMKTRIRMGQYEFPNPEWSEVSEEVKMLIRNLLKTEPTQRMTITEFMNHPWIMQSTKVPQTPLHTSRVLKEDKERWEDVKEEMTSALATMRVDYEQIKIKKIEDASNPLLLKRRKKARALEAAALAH
PKG1α (h) (human (h)), Q13976, sequence (Q13976 whole entry): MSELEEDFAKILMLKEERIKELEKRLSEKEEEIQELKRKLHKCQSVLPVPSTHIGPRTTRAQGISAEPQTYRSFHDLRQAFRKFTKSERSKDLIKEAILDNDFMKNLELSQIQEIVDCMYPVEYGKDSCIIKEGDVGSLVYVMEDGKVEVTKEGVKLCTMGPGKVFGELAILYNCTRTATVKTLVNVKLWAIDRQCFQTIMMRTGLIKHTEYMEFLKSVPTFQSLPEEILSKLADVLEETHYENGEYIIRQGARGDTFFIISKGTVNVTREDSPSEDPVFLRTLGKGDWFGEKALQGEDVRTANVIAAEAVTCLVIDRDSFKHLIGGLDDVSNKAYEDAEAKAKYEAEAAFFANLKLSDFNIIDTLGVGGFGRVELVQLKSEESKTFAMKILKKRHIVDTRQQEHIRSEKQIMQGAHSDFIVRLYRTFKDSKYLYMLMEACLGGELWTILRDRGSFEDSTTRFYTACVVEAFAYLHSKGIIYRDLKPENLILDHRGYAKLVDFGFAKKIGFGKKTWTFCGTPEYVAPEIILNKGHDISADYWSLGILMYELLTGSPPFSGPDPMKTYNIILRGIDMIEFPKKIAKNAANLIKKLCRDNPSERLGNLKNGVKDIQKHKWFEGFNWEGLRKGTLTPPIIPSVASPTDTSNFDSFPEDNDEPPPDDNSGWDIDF

With KAL[dN]RQLGVAA (peptide, from a related filing) [KALdNRQLGVAA], the % of … [SEQ ID NO: 124] Reaction Velocity at an Inhibitor Concentration of 100 µM in assay [1] came to 95%.
As for FAKLAARLYRKALARQLGVAA, the Profile-1 @ = 100 µm (kinase profiler assay) was 73 in assay [2] and 12 in assay [3].
As for KALN[dR]QLGVAA (peptide, from a related filing) [KALNdRQLGVAA], the % of … [SEQ ID NO: 124] Reaction Velocity at an Inhibitor Concentration of 100 µM in assay [1] was 306%.
In assay [1], KA[dL]NRQLGVAA (peptide, from a related filing) [KAd…] had a % of … [SEQ ID NO: 124] Reaction Velocity at an Inhibitor Concentration of 100 µM of 146%.
KALNRQLG[dV]AA (peptide, from a related filing) [KALNRQLGdVAA] showed a % of … [SEQ ID NO: 124] Reaction Velocity at an Inhibitor Concentration of 100 µM in assay [1] of 260%.
KAFAKLAARLYRKALARQLGVAA: the Profile-1 @ = 100 µm (kinase profiler assay) came out at 23 in assay [2] and 25 in assay [3].
Turning to WLRRIKAWLRRIKALNRQLGVAA, the Profile-1 @ = 30 µm (kinase profiler assay) was 8 in assay [2] and 16 in assay [3].
